Measured values taken from the DeepSol protein solubility set.

Assay: soluble on expression in E. coli; label from the status in PepcDB or PDB records

Row | Sequence | soluble on expression in E. coli
1 | MVRVEDSNGADTDTNPEGESSGYVRLAGNGLPGGEQQQASSSGVAAAPSVDSSPGRSVPLAIASSSSPANVANNQYAIPVDENGHRYVGLVNQAMTCYLNSLVQSLYMTPEFRNAMYDWEYVQQPAHIKEQRKKAEQSIPCQLQKLFLLLQTSENDSLETKDLTQSFGWTSNEAYDQHDVQELCRLMFDALEHKWKGTEHEKLIQDLYRGTMEDFVACLKCGRESVKTDYFLDLPLAVKPFGAIHAYKSVEEALTAFVQPELLDGSNQYMCENCKSKQDAHKGLRITQFPYLLTIQLKRFDFDYNTMHRIKLNDKMTFPDVLDLNDYVNKEKRSTTSSAWQQIGKNKSENEEDDMELGSPNPKRCTPGVQSPNRYQGSENVCVGQPIDHAAVDDIVKTSGDNVYELFSVMVHSGNAAGGHYFAYIKNLDQDRWYVFNDTRVDFATPLEIEKSFGGHPSGWNQSNTNAYMLMYRRIDPKRNARFILSNQLPQHIKDSQEKWKRLEREAEDERLRKLSLIQVYVTINYPFPSVVTLPDKKQLDLTPQKYQIAEDFGEYKTEISREMPIKNVFNHAFEFFNERARAYNLPFTKNSARLIYVEHGSLMMDFKSKADMDKKLRSVFNVNHGEPGSMYGVHFILDVRIASSFFPVDIKNKITIKVQRVDIGKKTTANELIVVVDANEKMIKVKSWIGGQFRDDIHGVLNARVVLEVASSRCEFMMIDVSHNATEFGSLIQQYVGHTTPTLYYDGGLNTMVTKESQEATLADRKLPFDKSVMYHILDRKCFSTMVKVRLPSQEEIEKAASTKNAYQGPTWAETIAIMKEEDRLWNEPRAAVEVMSTVSRTDTTDHALVADTDDEPIPSGRGSTASMRSVSMDDIDADIGISGSLCNNTPQMSPCVSEGDDADESQLDGKSQLMSDYMQKTSPDFYYNRDPQNHLNKNLKIALGDETPSESLSAVSSGQSTLVPSTSNQALSSMTRSDEAVDGKIVTVFSHENFHKLDVDSRMRVLEFKKWVAEQLEMDKDQFVIVKHASDDGSDSGYEANFMDDETVSGAFQSCFISIKLRAPLKSDEKMMQIILFDILENLRENWKPLFELPVSQSTVIGDVLLQCLRMYKEVYGEELTPKMVRLRELGGSGVGTGRAVLNPNDTLEKRSYNWCSHLYLQIITDEAMIGKPGEPIMVRRFRPSTVEVNPTHEVLVDANAENPVVSFVEALSKISGIPVERLAITDLKEFNWQKWPYLKSRLDMLENKVNFTKDLQVTYPLPREFLDKVGSRVLYYKDSDEEAKVLSEDERKQIKIKENGQSANANRRKERPLRIQMSSVCEA | not soluble
2 | MVSKIRTFGWVQNPGKFENLKRVVQVFDRNSKVHNEVKNIKIPTLVKESKIQKELVAIMNQHDLIYTYKELVGTGTSIRSEAPCDAIIQATIADQGNKKGYIDNWSSDGFLRWAHALGFIEYINKSDSFVITDVGLAYSKSADGSAIEKEILIEAISSYPPAIRILTLLEDGQHLTKFDLGKNLGFSGESGFTSLPEGILLDTLANAMPKDKGEIRNNWEGSSDKYARMIGGWLDKLGLVKQGKKEFIIPTLGKPDNKEFISHAFKITGEGLKVLRRAKGSTKFTRVPKRVYWEMLATNLTDKEYVRTRRALILEILIKAGSLKIEQIQDNLKKLGFDEVIETIENDIKGLINTGIFIEIKGRFYQLKDHILQFVIPNRLGKPDLVKSELEEKKSELRHKLKYVPHEYIELIEIARNSTQDRILEMKVMEFFMKVYGYRGKHLGGSRKPDGAIYTVGSPIDYGVIVDTKAYSGGYNLPIGQADEMQRYVEENQTRNKHINPNEWWKVYPSSVTEFKFLFVSGHFKGNYKAQLTRLNHITNCNGAVLSVEELLIGGEMIKAGTLTLEEVRRKFNNGEINF | soluble
3 | MVSSSVARGLEDAGLKRFVPAFSGVSDQAFLGLMMSDYASYGVVELEDKQRLFRLIKSIAASVKSSDAPAPALEKPNALIDLDENDGDLLADAGVNFQLSPLANQNPKAPVPSGGGGVPPSEGEDPPKIRVVVRKRPISKKERERGDDDVVDVLAKNNTVVVNEEKVKVDLTKYLEKHAFKFDESLDENVSNEAVYQLTVGPLVRTLFRNGRASCFAYGQTGSGKTYTMSPLPIRASADIFTFMAQQQYRDISLCVSCFEIYGNKVFDLLNARKKLNILEDGKKKVVVVGLKEFGVDDVDGVKALIEESAKNRSTGSTAANADSSRSHSIMQFALKRAAPAPAGGFRRGEDAPEPRVVGKISFIDLAGSERGADTFDNNRQTRLEGAEINKSLLALKECIRALDSDARHVPFRGSKLTAVLRDSFVGDQARTVMIANISPCSSSVEHTLNTLRYADRVKELRKDKADRTPGGVTPGDDAYYAAVARAAGPGQAAAPAPERERERADLQRERDRERASDRYPSPPRQQAGAFAGGGGGGAGADGEGSAAALAERHDELMDSILLEEENLVAFHRAKLEEDMETMRQEMALLQEVDKPGSEIDHYVEQMSALLNIKRQGIQELQAKLDTFKAKLREEEALSRTVHKIRT | not soluble
4 | MVTEDVRATADDIADMEIRGAATIARAAADALESQATDSDADSPAAFRAELRAAARHLRDTRPTAVSLPNALRYVLGNTDGETVAALRASVTDAADAFRQQLDRAQDDLGAIGANRLRDGDTVMTHCHSTDALACVKAALDDGKHIEAVVKETRPRKQGHITADQLREWGVPVTLIVDNAGRRYLDAVDHVLVGADSIAADGSVINKIGTSMLAVVARERGVPVMVAAQTLKLHPDTLTGNTVEIEMRDETEVLAAADRHQLGAPDVENPAFDVTPPRYVDAIVTERGQFPPESIVTLMRELYGDGTTEPWAEDLEHHHHHH | not soluble
5 | MVTGLICFTGCSDDFLKDKKVYGSYDASVVYENYETAKSRVDFLYQSLLPSSTGGSNALTDITSAGIDDDFSKCTEEYGDYSIFNDPTASLTIQTVPDYFYVINSERSPWGRIRECNNVIEGVTGSATLSQTEKEQLLGQAYFFRAWRYYLLVKMYGGVPIVDHVQNPVIGDGNGENLVIPRSSTKACIDFICDDLELAASYLPARWQNEGQDYGRITAGAALALKGRTLLLYASPLFNRADDASRWKDAYDANFAAITKLNEGNFGLAYEGNGGEDNAKNWARMFATYTGGSEAVFVTLYNNVSPIASQNINRYNLWEQGIRPGNINGGGGKTPTAEIIDIFPMIDGKKPMESGVHYDPKKFFLNRDPRFYRTFAFPGVEWKFNSGNVDFSGATMSGLCPTRYTSGANYELWNYCWYTTADERNNPSRSGFAADMLGTKNRGVYVRKRSDDFDLGTSLYVFTDNSSGDQQGFRRSAAPYMEIRYAEVLLNLAESACGAGGTYHAEGVKALKAVRGRVGYTSANNYGLDAAIETDRAKLFEAILYERQVELAFEGKRAYDMRRWMLFDGGVGQGALNASWALSGFGGNTCTYLGVTPMNERGKRYRIEINVEGTGSANNDSDPIKNVERPAALTLNEKIATEADGETILDPAVSSICTFYDTYFSRKDISLDGNVLDINPYFQPRYYFFGLRQSAQQTNATLYQTIGWEDYAHGGMGTFDPLAE | not soluble
6 | MVTPIAVVGPTASGKSALGIALAHKLDGEVVNVDSMQLYKGMDIGTAKLTVEEREGIAHHQLDVWDVTETASVARFQSDAVADVEDIMSRGKTPILVGGSMLYVQSLVDDWQFPPTDSAVRARFEARLADIGVEALHAELTQLDPEAAAVIESNDPRRTVRALEVIELTGQPFQASQPPKDAPPRWGTRIIGLKTTPEWLNPRIEQRTARMFEQGFVAEVEHLVQQGLIADSTAGRAIGYSQVLAAMAGEMTWEDAFERTVTGTRRYVRRQRSWFNRDHRVSWVDASGDPTAQALEILGLQLEHHHHHH | soluble
7 | MVTQNKKILIITGSFGNGHMQVTQSIVNQLNEMNLNHLSVIQHDLFMEAHPIMTSICKKWYINSFKYFRNTYKRFYYSRPNELDKCFYKYYGLNKLINLLIKEKPDLILLTFPTPVMSVLTEQFNINIPIATVMTDYRMHKNWITPYSQRYYVATKDTKDDFIEAGVPASYIKVTGIPIADKFEESIDKEEWLSQQHLDPSKPTILMSAGAFGVSKGFDYMINNILEKSPNSQVVMICGRSKELKRSLKAKFKDNPSVKILGYTNHMNEWMASSQLMITKPGGITISEGLSRCIPMIFLNPAPGQELENAYYFESKGFGKIADTPNEAIDIVSDLTNNEETLKVMSSKMLESKVGYSTRKICKDLLDLIGHSSQPDEIYGKVPLYARFFVKLEHHHHHH | soluble
8 | MVTVAVPKERAPGERRVALVPEVVARLVKGGARVRVERGAGEGAYHPDEAYQEAGAEVVERGELLKGAHLLFTVQPPPEDLIQALEPGAIVVGFVQPHKNLELVRALQAKKATVIAMELIPRITRAQSMDALSSQATVAGYLAAIHAARLSPRFFPMLTTAAGTIRPAKVMVMGVGVAGLMAIATAKRLGAQVFAYDVRKAALEQALSLGAKPIELPISAEGEGGYARELTEEEKRIQHEALRDHVAGMDVLITTAQVPGRRAPILLTEDMVERLKPGTVVVDLAAESGGNCVLTKPGEVVEVRGVRVYGPLNLPSELSVHASEMYAKNLYNLSSLLIEKGAFAPKWEDEIVRAALLMKEGEVLHGPTKALLGGA | soluble
9 | MVVLKVTLLEGRPPEKKRELVRRLTEMASRLLGEPYEEVRVILYEVRRDQWAAGGVLFSDKEGT | soluble
10 | MVVVRLPKEIEERLTALARKTGRSKSYYVRQALLEYLDDLEDYYLAVERLEERLPGIPLDEVERRLGLSD | soluble
11 | MVVVYVVKIGGSLTNNAVNLLENLKKLGEKVVIIPGGGNFANVVRNLHENEKINDISAHKLATMCTDITGTYFSEISGIKTADNLFDAKRILQNESIVIILPSNIILSTDELPCSWEVTSDSFAAYIAKLLNSKTLIIATDVDGIYDKYPEGKLLNTINTKTIKGFTSVDKHLPKLISEYGIKCFVVNGNHPERINNIFKGVVDTYTKITLKLEHHHHHH | not soluble
12 | MVWMVELKEPFATLWRGKDPFEEVKTLQGEVFRELETRRTLRFEMAGKSYFLKWHRGTTLKEIIKNLLSLRMPVLGADREWNAIHRLRDVGVDTMYGVAFGEKGMNPLTRTSFIITEDLTPTISLEDYCADWATNPPDVRVKRMLIKRVATMVRDMHAAGINHRDCYICHFLLHLPFSGKEEELKISVIDLHRAQLRTRVPGRWRDKDLIGLYFSSMNIGLTQRDIWRFMKVYFAAPLKDILKQEQGLLSQAEAKATKIRERTIRKSL | not soluble
13 | MVYPIRLYGDPVLRRKARPVEDFSGIKRLAEDMLETMFEAKGVGLAAPQIGLSQRLFVAVEYADEPEGEEERPLRELVRRVYVVANPVITYREGLVEGTEGCLSLPGLYSEEVPRAERIRVEYQDEEGRGRVLELEGYMARVFQHEIDHLDGILFFERLPKPKREAFLEANRAELVRFQKEARALLKELSQG | soluble
14 | MWELAEVQEPEAWNRLVSGFAITSPLQSWGWGEVKRTTGWEPRRFLLLGGEGPVAAAQVLLKAAPGGLRLAYAPRGPALHRLEDLPEVARALGRALRATHLVLEPEAGLPAHLPAPRFPGLLLEEPIQPAHSLWLDLTQGEEALLKGMKEMHRRNARLALKRVALSVEGEEAFAEFYRLFTETNRRARLLQHDEAYYRAVLKEMNQPLGEAFLALARKDGEALAAGLFVAFAGKVAYLYGGSTRKHPEAKAPMGMHLAAIRHGMARGYRVYDLWGIPKNPRGSHAEGIHRFKEGFGGQRVQFPAYVLPLSPLYRPLGLLLRLRKTWVNLRVRGNPRDVLG | soluble
15 | MWGQTNMADKKSPLIAVSVGEASGDLLGAHLIRAIRKRCPQARFTGIGGELMKAEGFESLYDQERLAVRGFVEVVRRLPEILRIRRGLVRDLLSLKPDVFVGIDAPDFNLGVAEKLKRSGIPTVHYVSPSVWAWRRERVGKIVHQVNRVLCLFPMEPQLYLDAGGRAEFVGHPMAQLMPLEDDRETARQTLGVDAGIPVFALLPGSRVSEIDYMAPVFFQTALLLLERYPAARFLLPAATEATKRRLAEVLQRPEFAGLPLTVIDRQSETVCRAADAVLVTSGTATLEVALCKRPMVISYKISPLTYAYVKRKIKVPHVGLPNILLGKEAVPELLQSEAKPEKLAAALADWYEHPDKVAALQQDFRALHLLLKKDTADLAARAVLEEAGC | not soluble
